Assay results: paper PMC7058361, “Functional interactions between posttranslationally modified amino acids of methyl-coenzyme M reductase in Methanosarcina acetivorans” (PLoS Biology, 2020)

B1: alpha subunit of methyl-coenzyme M reductase (McrA) from wild-type M. acetivorans, fully modified (natural protein, Methanosarcina acetivorans, UniProt Q8THH1 1-570, looked up)
chain: MAADIFAKFKKSMEVKFTQEYGSNKQAGGDITGKTEKFLRLGPEQDARKQEMIKAGKEIAEKRGIAFYNPMMHMGAPLGQRAITPYTISGTDIVAEPDDLHYVNNAAMQQMWDDIRRTCIVGLDMAHETLEKRLGKEVTPETINHYLETLNHAMPGAAVVQEMMVETHPALVDDCYVKIFTGDDELADEIDKQYVINVNKMFSEEQAAQIKASIGKTTWQAIHIPTIVSRTTDGAQTSRWAAMQIGMSFISAYAMCAGEAAVADLSFAAKHAALVSMGEMLPARRARGPNEPGGLSFGHLSDIVQTSRVSKDPAKIALEVVGAGCMLYDQIWLGSYMSGGVGFTQYATAAYTDDILDNNTYYDVDYINDKYNGAANLGTDNKVKATLDVVKDIATESTLYGIETYEKFPTALEDHFGGSQRATVLAAASGVACALATGNANAGLSGWYLSMYVHKEAWGRLGFFGFDLQDQCGATNVLSYQGDEGLPDELRGPNYPNYAMNVGHQGGYAGIAQAAHSGRGDAFTVNPLLKVCFADELMPFNFAEPRREFGRGAIREFMPAGERSLVIPAK
modifications: N1-methylhistidine at His271; 5-(S)-methylarginine at Arg285; thioglycine at Gly465; didehydroaspartate at Asp470; S-methylcysteine at Cys472
notes: McrA, alpha subunit of methyl-coenzyme M reductase, Methanosarcina acetivorans; chromosomally encoded; Two copies stand in the α2β2γ2 complex; also called α subunit of MCR; α-subunit; source: endogenous, M. acetivorans strain with TAP-tagged mcrG
B2: McrA from the ΔycaO-tfuA mutant of M. acetivorans (lacks thioglycine) (natural protein, Methanosarcina acetivorans, UniProt Q8THH1 1-570, looked up)
chain: B1 chain
modifications: N1-methylhistidine at His271; 5-(S)-methylarginine at Arg285; didehydroaspartate at Asp470; S-methylcysteine at Cys472; Gly465 unmodified
notes: McrA, alpha subunit of methyl-coenzyme M reductase, Methanosarcina acetivorans; chromosomally encoded; differs only in the posttranslational modifications; also called McrA with unmodified Gly465; source: endogenous, M. acetivorans ΔycaO-tfuA strain with TAP-tagged mcrG
B3: McrA from the ΔmcmAΔycaO-tfuA double mutant of M. acetivorans (lacks S-methylcysteine and thioglycine) (natural protein, Methanosarcina acetivorans, UniProt Q8THH1 1-570, looked up)
chain: B1 chain
modifications: N1-methylhistidine at His271; 5-(S)-methylarginine at Arg285; didehydroaspartate at Asp470; Gly465 and Cys472 unmodified
notes: McrA, alpha subunit of methyl-coenzyme M reductase, Methanosarcina acetivorans; chromosomally encoded; differs only in the posttranslational modifications; also called McrA from ΔycaO-tfuA/ΔmcmA; source: endogenous, M. acetivorans ΔmcmAΔycaO-tfuA strain with TAP-tagged mcrG
B4: McrA from the ΔmamAΔmcmAΔycaO-tfuA triple mutant of M. acetivorans (lacks 5-(S)-methylarginine, S-methylcysteine and thioglycine) (natural protein, Methanosarcina acetivorans, UniProt Q8THH1 1-570, looked up)
chain: B1 chain
modifications: N1-methylhistidine at His271; didehydroaspartate at Asp470; Arg285, Gly465 and Cys472 unmodified
notes: McrA, alpha subunit of methyl-coenzyme M reductase, Methanosarcina acetivorans; chromosomally encoded; differs only in the posttranslational modifications; also called McrA from the triple-deletion mutant; source: endogenous, M. acetivorans ΔmamAΔmcmAΔycaO-tfuA strain with TAP-tagged mcrG
B5: McrA from the ΔmamAΔycaO-tfuA double mutant of M. acetivorans (lacks 5-(S)-methylarginine and thioglycine) (natural protein, Methanosarcina acetivorans, UniProt Q8THH1 1-570, looked up)
chain: B1 chain
modifications: N1-methylhistidine at His271; didehydroaspartate at Asp470; S-methylcysteine at Cys472; Arg285 and Gly465 unmodified
notes: McrA, alpha subunit of methyl-coenzyme M reductase, Methanosarcina acetivorans; chromosomally encoded; differs only in the posttranslational modifications; source: endogenous, M. acetivorans ΔmamAΔycaO-tfuA strain with TAP-tagged mcrG
B6: McrA from the ΔmamAΔmcmA double mutant of M. acetivorans (lacks 5-(S)-methylarginine and S-methylcysteine) (natural protein, Methanosarcina acetivorans, UniProt Q8THH1 1-570, looked up)
chain: B1 chain
modifications: N1-methylhistidine at His271; thioglycine at Gly465; didehydroaspartate at Asp470; Arg285 and Cys472 unmodified
notes: McrA, alpha subunit of methyl-coenzyme M reductase, Methanosarcina acetivorans; chromosomally encoded; differs only in the posttranslational modifications; source: endogenous, M. acetivorans ΔmamAΔmcmA strain with TAP-tagged mcrG
B7: McrA from the ΔmamA mutant of M. acetivorans (lacks 5-(S)-methylarginine) (natural protein, Methanosarcina acetivorans, UniProt Q8THH1 1-570, looked up)
chain: B1 chain
modifications: N1-methylhistidine at His271; thioglycine at Gly465; didehydroaspartate at Asp470; S-methylcysteine at Cys472; Arg285 unmodified
notes: McrA, alpha subunit of methyl-coenzyme M reductase, Methanosarcina acetivorans; chromosomally encoded; differs only in the posttranslational modifications; also called McrA with unmodified Arg285; source: endogenous, M. acetivorans ΔmamA strain with TAP-tagged mcrG
B8: McrA from the ΔmcmA mutant of M. acetivorans (lacks S-methylcysteine) (natural protein, Methanosarcina acetivorans, UniProt Q8THH1 1-570, looked up)
chain: B1 chain
modifications: N1-methylhistidine at His271; 5-(S)-methylarginine at Arg285; thioglycine at Gly465; didehydroaspartate at Asp470; Cys472 unmodified
notes: McrA, alpha subunit of methyl-coenzyme M reductase, Methanosarcina acetivorans; chromosomally encoded; differs only in the posttranslational modifications; also called McrA with unmodified Cys472; source: endogenous, M. acetivorans ΔmcmA strain with TAP-tagged mcrG

Molecular target: the molecule itself
Experiment: crystal structure; wild-type TAP-tagged MCR complex affinity-purified aerobically from M. acetivorans, inactive Ni(II) form; 25 mg/ml, sitting drops, 0.2 M ammonium acetate, 0.1 M sodium acetate pH 4, 15% PEG 4000, room temperature; 1.65 Å

Binding result, binds:
B1

Molecular target: the molecule itself
Experiment: crystal structure; TAP-tagged MCR variants affinity-purified aerobically from the modification mutants, inactive Ni(II) form; 3-30 mg/ml, hanging drops, same reservoir solution as the wild type; 1.9-2.3 Å

Binding result, binds:
B2, B3, B4, B5, B6, B7, B8
